In article PMC7405809:

How the values were obtained:
His6-BFL-1ΔC C4S/C19S = His6-BFL-1ΔC C4S/C19S (UniProt Q16548); assay: fluorescence polarisation
[1] = target: BFL-1ΔC C4S/C19S conjugated to 4E14 at C55 (UniProt Q16548); assay: fluorescence polarisation

## FITC-BID BH3 peptide
His6-BFL-1ΔC C4S/C19S
  EC50: 0.023 µM
[1]
  EC50: 1.3 µM
